The supplement of paper PMC10065799, “High-throughput profiling of sequence recognition by tyrosine kinases and SH2 domains using bacterial peptide display” (eLife, 2023)

Assays:
AncSZ = experiment: phosphorylation enrichment, bacterial display (enrichment ratio); higher = better substrate or ligand; peptides without Tyr show the background
EPHB1 = EPHB1 (UniProt P54762); experiment: as above
EPHB2 = EPHB2 (UniProt P29323); experiment: as above
FGFR1 = FGFR1 (UniProt P11362); experiment: as above
FGFR3 = FGFR3 (UniProt P22607); experiment: as above
Fer (mouse) = experiment: as above
Fes = Fes (UniProt P07332); experiment: as above
Fyn = Fyn (UniProt P06241); experiment: as above
Hck = Hck (UniProt P08631); experiment: as above
Jak2 = Jak2 (UniProt O60674); experiment: as above
MERTK = MERTK (UniProt Q12866); experiment: as above
c-Abl (mouse) = experiment: as above
c-Src = experiment: as above
Grb2 SH2 = Grb2 SH2 (UniProt P62993); experiment: SH2 binding enrichment of the phosphorylated peptide, bacterial display (enrichment ratio); higher = better substrate or ligand; peptides without Tyr show the background
SHP2-C SH2 = experiment: as above
c-Src SH2 = experiment: as above
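Throughout, for SH2 binding enrichment of the phosphorylated peptide, bacterial display: peptide library displayed on the E. coli surface as eCPX fusions, selected cells deep-sequenced, score is each peptide's frequency after selection divided by its frequency in the input.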
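Throughout, for phosphorylation enrichment, bacterial display: 11-residue human phosphosite peptides and single-mutation variants displayed on the E. coli surface, counted by deep sequencing, each peptide's frequency after selection divided by its frequency in the unselected input library; frequency after pTyr selection over input frequency; kinase dosed for 20-30% of maximal phosphorylation in three min.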

Fyn, sequence (P06241 whole entry, looked up): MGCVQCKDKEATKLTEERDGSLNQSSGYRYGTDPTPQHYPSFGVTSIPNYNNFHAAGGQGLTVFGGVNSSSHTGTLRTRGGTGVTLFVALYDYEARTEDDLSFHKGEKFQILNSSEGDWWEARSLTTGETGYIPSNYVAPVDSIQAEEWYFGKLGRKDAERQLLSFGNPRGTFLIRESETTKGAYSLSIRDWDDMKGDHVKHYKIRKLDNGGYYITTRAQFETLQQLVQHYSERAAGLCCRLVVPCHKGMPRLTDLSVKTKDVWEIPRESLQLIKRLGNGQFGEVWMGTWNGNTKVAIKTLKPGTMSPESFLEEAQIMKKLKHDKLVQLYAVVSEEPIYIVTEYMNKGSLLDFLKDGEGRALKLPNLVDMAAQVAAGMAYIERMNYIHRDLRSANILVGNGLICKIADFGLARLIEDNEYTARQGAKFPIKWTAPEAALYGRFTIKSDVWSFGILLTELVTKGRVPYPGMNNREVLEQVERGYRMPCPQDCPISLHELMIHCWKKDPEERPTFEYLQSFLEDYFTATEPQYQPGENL
FGFR3, sequence (P22607 whole entry, looked up): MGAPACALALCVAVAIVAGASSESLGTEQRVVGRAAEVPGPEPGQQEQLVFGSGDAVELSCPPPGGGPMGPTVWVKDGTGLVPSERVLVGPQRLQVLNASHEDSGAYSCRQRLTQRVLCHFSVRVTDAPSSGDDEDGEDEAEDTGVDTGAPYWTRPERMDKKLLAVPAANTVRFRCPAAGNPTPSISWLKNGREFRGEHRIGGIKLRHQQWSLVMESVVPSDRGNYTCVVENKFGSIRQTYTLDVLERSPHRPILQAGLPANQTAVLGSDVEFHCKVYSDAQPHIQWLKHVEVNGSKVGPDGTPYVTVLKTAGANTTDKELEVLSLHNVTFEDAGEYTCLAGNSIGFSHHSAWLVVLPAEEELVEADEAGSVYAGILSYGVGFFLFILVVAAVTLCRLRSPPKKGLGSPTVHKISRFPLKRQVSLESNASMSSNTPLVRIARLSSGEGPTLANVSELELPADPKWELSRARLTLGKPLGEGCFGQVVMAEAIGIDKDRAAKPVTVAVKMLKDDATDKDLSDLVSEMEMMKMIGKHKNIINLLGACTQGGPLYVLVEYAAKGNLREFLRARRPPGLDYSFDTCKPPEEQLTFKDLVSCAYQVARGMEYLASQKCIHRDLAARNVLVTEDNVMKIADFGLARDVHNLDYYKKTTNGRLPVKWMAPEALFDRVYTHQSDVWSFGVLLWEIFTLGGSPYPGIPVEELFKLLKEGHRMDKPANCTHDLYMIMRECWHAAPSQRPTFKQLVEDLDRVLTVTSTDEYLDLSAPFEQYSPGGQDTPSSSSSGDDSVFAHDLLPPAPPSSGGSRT
MERTK, sequence (Q12866 whole entry, looked up): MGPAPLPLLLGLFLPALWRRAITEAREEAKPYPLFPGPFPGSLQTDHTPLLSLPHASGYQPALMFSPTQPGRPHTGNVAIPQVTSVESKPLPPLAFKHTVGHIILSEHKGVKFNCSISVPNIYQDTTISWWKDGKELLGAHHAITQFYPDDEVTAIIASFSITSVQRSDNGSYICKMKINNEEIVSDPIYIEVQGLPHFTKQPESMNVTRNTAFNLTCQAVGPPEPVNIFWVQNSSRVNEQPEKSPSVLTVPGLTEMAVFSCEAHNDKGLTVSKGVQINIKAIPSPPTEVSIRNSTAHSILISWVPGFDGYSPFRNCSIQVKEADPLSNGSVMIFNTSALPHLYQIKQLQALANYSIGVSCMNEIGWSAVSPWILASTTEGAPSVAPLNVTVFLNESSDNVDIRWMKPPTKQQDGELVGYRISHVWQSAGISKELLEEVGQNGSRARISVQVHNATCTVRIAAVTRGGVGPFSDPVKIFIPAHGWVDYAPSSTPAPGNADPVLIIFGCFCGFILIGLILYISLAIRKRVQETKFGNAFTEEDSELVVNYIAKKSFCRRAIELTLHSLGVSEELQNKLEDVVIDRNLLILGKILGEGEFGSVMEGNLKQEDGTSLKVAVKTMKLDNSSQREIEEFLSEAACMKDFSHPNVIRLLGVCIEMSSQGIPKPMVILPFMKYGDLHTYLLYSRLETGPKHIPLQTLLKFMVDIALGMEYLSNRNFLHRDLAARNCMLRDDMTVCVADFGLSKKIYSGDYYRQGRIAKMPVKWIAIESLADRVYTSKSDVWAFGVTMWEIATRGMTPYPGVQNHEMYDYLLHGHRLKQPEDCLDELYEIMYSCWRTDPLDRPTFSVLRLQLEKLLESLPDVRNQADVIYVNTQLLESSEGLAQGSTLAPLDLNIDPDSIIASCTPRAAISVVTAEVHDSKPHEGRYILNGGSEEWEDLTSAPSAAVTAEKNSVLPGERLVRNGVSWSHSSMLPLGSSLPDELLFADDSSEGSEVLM
FGFR1, sequence (P11362 whole entry, looked up): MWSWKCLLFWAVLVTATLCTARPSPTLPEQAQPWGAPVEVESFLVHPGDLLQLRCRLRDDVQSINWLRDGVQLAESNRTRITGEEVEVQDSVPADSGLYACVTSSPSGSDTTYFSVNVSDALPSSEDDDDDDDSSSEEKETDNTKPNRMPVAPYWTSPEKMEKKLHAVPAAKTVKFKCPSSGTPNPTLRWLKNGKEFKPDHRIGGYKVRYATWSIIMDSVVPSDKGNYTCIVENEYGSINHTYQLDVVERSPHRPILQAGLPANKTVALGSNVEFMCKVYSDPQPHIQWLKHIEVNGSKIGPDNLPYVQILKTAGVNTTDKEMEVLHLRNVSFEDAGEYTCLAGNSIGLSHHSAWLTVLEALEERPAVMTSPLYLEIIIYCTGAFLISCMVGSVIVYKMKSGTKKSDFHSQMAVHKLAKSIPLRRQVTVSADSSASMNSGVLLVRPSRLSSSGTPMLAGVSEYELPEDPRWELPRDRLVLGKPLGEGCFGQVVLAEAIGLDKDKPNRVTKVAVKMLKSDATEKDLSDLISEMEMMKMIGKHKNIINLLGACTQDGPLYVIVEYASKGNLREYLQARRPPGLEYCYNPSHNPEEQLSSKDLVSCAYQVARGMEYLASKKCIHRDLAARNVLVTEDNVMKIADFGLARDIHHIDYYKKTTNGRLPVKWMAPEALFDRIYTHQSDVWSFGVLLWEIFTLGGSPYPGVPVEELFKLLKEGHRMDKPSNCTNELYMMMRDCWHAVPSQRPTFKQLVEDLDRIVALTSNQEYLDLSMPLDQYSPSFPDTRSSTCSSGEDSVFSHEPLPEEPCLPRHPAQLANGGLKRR
Hck, sequence (P08631 whole entry, looked up): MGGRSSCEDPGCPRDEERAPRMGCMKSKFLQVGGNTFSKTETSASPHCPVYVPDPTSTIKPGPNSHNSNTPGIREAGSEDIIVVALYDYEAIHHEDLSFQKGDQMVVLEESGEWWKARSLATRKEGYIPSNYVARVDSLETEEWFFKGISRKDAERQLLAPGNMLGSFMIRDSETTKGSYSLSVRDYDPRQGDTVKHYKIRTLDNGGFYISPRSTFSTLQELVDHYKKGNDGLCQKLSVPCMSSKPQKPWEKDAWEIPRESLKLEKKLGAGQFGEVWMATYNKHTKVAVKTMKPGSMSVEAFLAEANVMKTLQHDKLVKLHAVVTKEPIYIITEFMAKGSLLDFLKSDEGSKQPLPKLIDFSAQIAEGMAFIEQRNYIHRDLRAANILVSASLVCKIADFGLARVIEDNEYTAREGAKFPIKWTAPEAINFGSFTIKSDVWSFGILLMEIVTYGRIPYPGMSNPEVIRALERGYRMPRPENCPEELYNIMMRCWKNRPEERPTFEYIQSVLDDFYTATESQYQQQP
EPHB1, sequence (P54762 whole entry, looked up): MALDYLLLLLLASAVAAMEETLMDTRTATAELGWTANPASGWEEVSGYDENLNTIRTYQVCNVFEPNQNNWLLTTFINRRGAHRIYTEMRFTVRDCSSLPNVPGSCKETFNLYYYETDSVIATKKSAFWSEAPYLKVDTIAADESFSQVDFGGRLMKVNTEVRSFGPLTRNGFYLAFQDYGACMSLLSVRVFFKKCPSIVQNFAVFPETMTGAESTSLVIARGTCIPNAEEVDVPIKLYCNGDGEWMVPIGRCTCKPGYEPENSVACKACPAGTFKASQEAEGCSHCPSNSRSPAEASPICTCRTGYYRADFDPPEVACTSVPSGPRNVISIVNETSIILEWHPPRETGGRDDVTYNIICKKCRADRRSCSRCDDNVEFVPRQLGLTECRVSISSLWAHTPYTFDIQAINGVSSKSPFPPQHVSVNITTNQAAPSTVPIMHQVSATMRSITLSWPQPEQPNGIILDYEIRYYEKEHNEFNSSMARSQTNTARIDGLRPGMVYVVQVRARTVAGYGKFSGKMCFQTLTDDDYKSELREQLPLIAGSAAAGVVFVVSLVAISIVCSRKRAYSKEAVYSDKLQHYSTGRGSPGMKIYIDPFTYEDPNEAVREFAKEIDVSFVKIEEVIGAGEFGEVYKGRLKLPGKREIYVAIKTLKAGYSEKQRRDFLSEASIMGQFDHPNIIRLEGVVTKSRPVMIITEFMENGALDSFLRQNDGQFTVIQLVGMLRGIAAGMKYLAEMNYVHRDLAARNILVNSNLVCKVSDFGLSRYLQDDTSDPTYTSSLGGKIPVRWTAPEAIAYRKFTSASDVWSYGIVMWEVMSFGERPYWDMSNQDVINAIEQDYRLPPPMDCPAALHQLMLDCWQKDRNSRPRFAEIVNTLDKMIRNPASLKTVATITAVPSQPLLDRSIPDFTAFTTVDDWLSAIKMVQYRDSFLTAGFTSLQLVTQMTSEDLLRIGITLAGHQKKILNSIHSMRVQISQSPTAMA

SH2 binding enrichment (Grb2 SH2)	SH2 binding enrichment (SHP2-C SH2)	SH2 binding enrichment (c-Src SH2)	Sequence	phosphorylation enrichment (AncSZ)	phosphorylation enrichment (EPHB1)	phosphorylation enrichment (EPHB2)	phosphorylation enrichment (FGFR1)	phosphorylation enrichment (FGFR3)	phosphorylation enrichment (Fer (mouse))	phosphorylation enrichment (Fes)	phosphorylation enrichment (Fyn)	phosphorylation enrichment (Hck)	phosphorylation enrichment (Jak2)	phosphorylation enrichment (MERTK)	phosphorylation enrichment (c-Abl (mouse))	phosphorylation enrichment (c-Src)
0.957	0.685	0.767	KELAPYDENWF [RPS19_Y48]	1.2	0.506	0.618	0.563	0.664	0.53	1.12	0.506	0.517	1.06	0.421	0.597	0.458
0.9	0.565	0.571	LYEDHYLLGTS [ASS1_Y87_R86H]	1.66	12.3	3.05	0.689	0.972	16.1	1.37	1.86	1.19	2.17	2.08	1.1	2.73
0.654	0.613	0.71	DAMQTYNGNDE [TSPAN7_Y131]	1.01	0.637	0.576	0.508	0.837	0.531	1.11	0.55	0.494	1.03	0.585	0.653	0.685
2.04	1.84	1.18	ATDLAYFLVRK [ASL_Y375_YF]	1.73	0.73	0.872	1.26	1.32	0.509	1.6	0.725	0.686	2.72	0.642	1.2	0.728
0.857	0.547	0.572	NQDRTYFERVR [SPEN_Y632_S635R_YF]	0.607	0.473	0.411	0.421	0.522	0.401	0.648	0.419	0.812	0.601	0.377	0.538	0.567
2	2.05	2.34	CTTIHYNFICN [TP53_Y234_M237I_YF]	0.895	0.554	0.59	0.554	0.775	0.672	1.23	0.464	0.454	1.25	0.439	0.787	0.595
0.954	0.549	0.596	EKKDVYKAGEQ [CFH_Y1008]	1.08	0.336	0.643	0.434	0.482	0.624	0.675	0.404	0.386	0.555	0.425	0.475	0.394
1.93	1.66	1.43	KKYFSYAWPFY [BRDT_Y291_H288Y]	0.937	0.497	0.452	0.475	0.621	0.395	1.03	0.383	0.415	1.24	1.96	0.712	0.435
0.683	0.467	0.504	YAADYYKLLGN [ROR2_Y646]	1.1	0.963	0.863	12.5	9.3	0.634	0.993	0.452	0.808	4.53	1.47	0.769	0.908
1.07	0.622	0.584	RMETEYGPSVT [MXRA5_Y2717]	0.937	0.779	0.929	0.91	0.718	0.408	1.01	0.823	0.752	0.985	0.54	0.92	0.787
0.95	0.721	4.23	LHVGFYESDVM [A2M_Y708_R704H]	1.18	1.41	1.14	0.889	1.21	1.9	1.58	0.691	0.743	1.34	1.15	0.761	0.676
2.12	1.84	1.54	RLLVVYPWNQR [HBB_Y36_T39N]	1.1	0.391	0.752	0.557	0.62	0.595	1.4	0.603	0.431	1.04	0.636	0.735	0.351
